Tests used:
Human serum albumin = target: T1, Human serum albumin (human, UniProt P02768 25-609); test: phage ELISA: clones with higher absorbance than on BSA, sequenced
T1 construct: Bought protein; also called HSA; HAS
Protocol: (§1) The transformed cells were infected with Ex helper phages (5×10⁹ pfu/ml; OD=0.8-1.0) and cultured at 37° C. for 1 hr with shaking at 200 rpm. After removing the supernatant by centrifuging at 1,000×g for 10 min, the precipitated cells were resuspended in 1 ml LB liquid media supplemented with 50 μg/ml ampicillin and 25 μg/ml kanamycin, and cultured at 30° C. overnight with shaking at 200 rpm. The supernatant was collected by centrifuging at 10,000×g for 20 min at 4° C. and mixed with 2% skim milk, which is used in detection of phage peptides.
(§2) Fibronectin ED-B, VEGF, VCAM1, Nicotinic acetylcholine receptor (nAchR), Human serum albumin and MyD88 (each 5 μg/ml) and BSA (10 μg/ml) were added to 30 wells (50 μl per well) in a 96-well ELISA plate and then kept to stand at 4° C. overnight. Next day, all wells were washed with 0.1% PBST three times, and blocked at room temperature for 2 hrs using 2% skim milk diluted with PBS. Then, the solution was removed and the plate was washed with 0.1% PBST three times. Phage peptide solution (100 μl) amplified from each clone was divided into all wells and kept to stand at 27° C. for 1.5 hrs. After washing with 0.1% PBST 5 times, HRP-conjugated anti-M13 antibodies (1:1,000 dilution; GE Healthcare) were added to each well and incubated at 27° C. for 1 hr. After washing with 0.1% PBST 5 times, 100 μl TMB was divided into each well to induce colorimetric reaction, followed by stopping the reaction adding 100 μl of 1 M HCl. The absorbance was measured at 450 nm to select phages which had the absorbance higher than BSA. XL1 cells were infected with these phages and spread in plate to produce 100-200 of plaques. Using a sterile tip, plaques were inoculated in 4 ml LB-ampicillin (50 μg/ml) media and cultured at 37° C. overnight with vigorous shaking. Plasmids were purified by plasmid preparation kit (GeneAll, Seoul, Korea), and then sequenced. The following phagemid sequence was used for sequencing: 5′-[…]-3′.
(§3) The phages recovered from biopanning step having the highest ratio of output phage to input phage were isolated as plaques. Sixty plaques were amplified from each plaque, and then ELISA for BSA was carried out (FIG. 4). After selecting clones with higher absorbance compared to BSA, they were sequenced. We isolated peptides specific to each protein which were repetitively found in DNA sequencing (Table 3).

[1] = target: T2, VEGF121 (human vascular endothelial growth factor) (human, UniProt P15692-9 27-147); test: as above
T2 construct: Immobilised on a CM5 chip by EDC/NHS for SPR and coated on plates for phage ELISA; also called VEGF-Trx cut with thrombin
T2 sequence (looked up): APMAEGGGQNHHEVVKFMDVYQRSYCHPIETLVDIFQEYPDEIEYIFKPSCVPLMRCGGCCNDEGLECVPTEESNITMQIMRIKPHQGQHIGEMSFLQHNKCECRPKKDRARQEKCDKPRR
Protocol: as §1, §2, §3

[2] = target: T2, VEGF121 (human vascular endothelial …); test: SPR (BIAcore X), VEGF on CM5 chip
Protocol: (§4) Bipodal-peptide binder peptides specific to ED-B, VEGF or nAchR which were repetitively found in DNA sequencing were synthesized from Anigen Inc. (Korea). Affinity was measured using BIAcore X instrument (Biacore AB, Uppsala, Sweden). ED-B and nAchR were immobilized on streptavidin (SA) chip (Biacore) by injecting 2,000 RU biotinylated-EDB. VEGF was immobilized on CM5 chip (Biacore) using EDC/NHS. PBS (pH 7.4) was used as a running buffer.
(§5) The above-mentioned peptides were synthesized and their affinities to fibronectin ED-B, VEGF, VCAM1, nAchR and HAS were measured using SPR Biacore system (Biacore AB, Uppsala, Sweden).

[3] = target: T2, VEGF121 (human vascular endothelial …); test: SPR (BIAcore X), VEGF on CM5 chip, synthetic peptide as analyte
Protocol: as §4, §5

[4] = target: T3, Fibronectin ED-B protein (human fibronectin extra domain B, N-terminal His-tag) (human, UniProt P02751 1266-1356, biotinylated with sulfo-NHS-SS-biotin for biopanning, input-phage ELISA and SPR on the streptavidin chip); test: SPR (BIAcore X), biotinylated ED-B on streptavidin chip, synthetic peptide as analyte
T3 construct: domain: ED-B; Expressed in E. coli BL21 from pET28b; also called biotinylated-EDB; not shown: N-terminal His-tag from the pET28b vector
T3 sequence (P02751 1266-1356): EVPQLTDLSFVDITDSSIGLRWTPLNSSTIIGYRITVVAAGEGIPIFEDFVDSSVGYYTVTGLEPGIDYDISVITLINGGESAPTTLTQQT
Protocol: as §4, §5

[5] = target: T3, Fibronectin ED-B protein (human …); test: SPR (BIAcore X), biotinylated ED-B on SA chip
Protocol: as §4, §5

[6] = target: T4, GST-AR DBD protein (androgen receptor DNA binding domain with N-terminal GST) (UniProt P10275 556-636); test: phage ELISA of single clones on AR-DBD against BSA
T4 construct: In ELISA and EMSA the text calls the protein AR-DBD or AR DBD protein; also called androgen receptor DBD; not shown: GST encoded by the pGEX-4T-1 vector, N-terminal
T4 sequence (looked up): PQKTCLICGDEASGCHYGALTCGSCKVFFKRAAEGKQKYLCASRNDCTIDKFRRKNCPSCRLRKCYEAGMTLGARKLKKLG
Protocol: AR-DBD (10 μg/ml) and BSA (10 μg/ml) each was added to 30 wells (50 μl per well) in a 96-well ELISA plate and then kept to stand at 4° C. overnight. Next day, all wells were washed with 0.1% PBST three times, and blocked at room temperature for 2 hrs using 2% skim milk diluted with PBS. Then, the solution was removed and the plate was washed with 0.1% PBST three times. Phage peptide solution (100 μl) amplified from each clone was aliquoted to […] protein-bound wells and BSA protein-bound wells and kept to stand at 27° C. for 1.5 hrs. After washing with 0.1% PBST 10 times, HRP-conjugated anti-M13 antibodies (1:1,000 dilution; GE Healthcare) were added to each well and incubated at 27° C. for 1 hr. After washing with 0.1% PBST 5 times, 100 μl TMB was divided into each well to induce colorimetric reaction, followed by stopping the reaction adding 100 μl of 1 M HCl. The absorbance was measured at 450 nm to select phages which had the absorbance above 20-fold higher than BSA. XL1 cells were infected with these phages and spread in plate to produce 100-200 of plaques. […]
The phages recovered from the 5th biopanning step having the highest O/I ratio in each library were isolated as plaques. […] Most plaques were analyzed to show the absorbance value of AR-DBD higher than that of BSA. The DNA sequencing was performed for 20 clones showing the absorbance value above 5-fold higher than BSA. […]

[7] = target: T5, Peptide fragment of nAchR (Nicotinic acetylcholine receptor), 32 mer, biotinylated (N-terminal biotin); test: phage ELISA: clones with higher absorbance than on BSA, sequenced
T5 construct: Synthesised by Anigen; Immobilised on a streptavidin chip for SPR; also called biotinylated nAchR; biotinylated-nAchR peptide
T5 peptide: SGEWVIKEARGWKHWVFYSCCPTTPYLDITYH
Protocol: as §1, §2, §3

[8] = target: T3, Fibronectin ED-B protein (human …); test: SPR, synthetic truncated peptide on ED-B
Protocol: as §4
(§6) To verify cooperative effect of bipodal-peptide binder to antigen, we synthesized two peptides removing either N- or C-terminal region of peptide 2 to ED-B having excellent specificity in Table 3a for affinity measurement.

[9] = target: T3, Fibronectin ED-B protein (human …); test: SPR (Biacore), ED-B
Protocol: as §4, §6

BSA = target: T6, BSA (UniProt P02769 25-607); test: phage ELISA, absorbance at 450 nm
T6 construct: Control protein in the input-phage ELISA; also called bovine serum albumin
T6 sequence (P02769 25-607 limits assumed): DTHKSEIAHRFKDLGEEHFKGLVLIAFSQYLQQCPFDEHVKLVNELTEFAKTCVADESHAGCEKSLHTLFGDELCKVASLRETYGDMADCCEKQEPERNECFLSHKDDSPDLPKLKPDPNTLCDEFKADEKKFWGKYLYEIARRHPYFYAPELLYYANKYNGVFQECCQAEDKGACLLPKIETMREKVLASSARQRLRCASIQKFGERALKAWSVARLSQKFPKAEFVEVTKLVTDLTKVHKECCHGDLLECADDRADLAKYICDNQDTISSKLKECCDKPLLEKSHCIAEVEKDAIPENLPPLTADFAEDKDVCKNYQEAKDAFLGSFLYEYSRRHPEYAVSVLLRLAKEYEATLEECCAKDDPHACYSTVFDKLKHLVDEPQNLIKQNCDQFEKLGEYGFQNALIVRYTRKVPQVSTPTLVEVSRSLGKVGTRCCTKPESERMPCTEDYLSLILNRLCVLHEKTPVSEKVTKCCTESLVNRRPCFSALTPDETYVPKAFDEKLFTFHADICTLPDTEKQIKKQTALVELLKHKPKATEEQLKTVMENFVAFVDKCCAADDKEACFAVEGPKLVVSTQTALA

[10] = target: T3, Fibronectin ED-B protein (human …); test: SPR (BIAcore X), biotinylated ED-B on SA chip; remark: listed apart in the source
Protocol: (§7) In addition to tryptophan zipper, GB1 m3 and HP7 peptide as a type of other (3-hairpin backbones were synthesized to contain N-terminal sequence (HCSSAV) and C-terminal sequence (IIRLEQ) of peptide 2 which is specifically bound to ED-B (Anigen, Korea). In other words, the sequence of bipodal-peptide binder in tryptophan zipper is […], and in GB1 m3 and HP7 are […] and […], respectively. Affinity of each peptide was measured using BIAcore X (Biacore AB, Uppsala, Sweden). ED-B was immobilized on streptavidin (SA) chip (Biacore) by injecting 2,000 RU biotinylated-EDB. PBS (pH 7.4) was used as a running buffer. […] It could be appreciated that all stable β-hairpin motifs may function as a structure stabilizing region.

[11] = target: T3, Fibronectin ED-B protein (human …); test: SPR (BIAcore X), 2,000 RU biotinylated ED-B on streptavidin chip, PBS pH 7.4, 30 µl/min
Protocol: as §7

T1 sequence (P02768 25-609 limits assumed): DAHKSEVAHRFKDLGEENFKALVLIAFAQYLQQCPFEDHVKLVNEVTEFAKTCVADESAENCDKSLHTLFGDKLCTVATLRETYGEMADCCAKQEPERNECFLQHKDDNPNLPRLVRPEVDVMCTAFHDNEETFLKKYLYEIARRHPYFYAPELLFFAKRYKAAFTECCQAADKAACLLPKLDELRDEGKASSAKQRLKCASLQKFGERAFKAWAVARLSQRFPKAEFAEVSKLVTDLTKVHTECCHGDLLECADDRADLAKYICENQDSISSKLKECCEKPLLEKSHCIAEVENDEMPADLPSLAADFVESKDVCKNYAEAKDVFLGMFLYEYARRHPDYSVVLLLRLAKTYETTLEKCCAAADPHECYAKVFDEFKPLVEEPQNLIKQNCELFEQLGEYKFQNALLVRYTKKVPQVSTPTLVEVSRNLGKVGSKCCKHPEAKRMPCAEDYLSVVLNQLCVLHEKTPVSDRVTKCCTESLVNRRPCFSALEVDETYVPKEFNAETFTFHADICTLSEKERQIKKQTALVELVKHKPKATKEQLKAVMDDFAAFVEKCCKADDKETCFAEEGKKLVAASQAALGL

YGAYPWGSWTWENGKWTWKGWRVSRD: binds (Human serum albumin); binds [1].

For ASPFWAGSWTWENGKWTWKGWVPSNA [Peptide 2 specific to VEGF (Table 3b), bipodal-peptide binder], the koff [2] was 0.011 s⁻¹, the kon [2] was 35000 M⁻¹ s⁻¹ and the Kd [3] was 326 nM.

YAHFGWGSWTWENGKWTWKGTTDSQS [Peptide 5 specific to HSA (Table 3e), bipodal-peptide binder]: binds (Human serum albumin).

HSQGSPGSWTWENGKWTWKGRYSHRA [Peptide 3 specific to fibronectin ED-B (Table 3a), bipodal-peptide binder] gave a Kd [4] of 2500 nM, a koff [5] of 0.099 s⁻¹ and a kon [5] of 390000 M⁻¹ s⁻¹.

For YGFAPFGSWTWENGKWTWKGYSTQKP [Peptide 1 from the AR-DBD biopanning (14/20 clones), bipodal-peptide binder], the “fold absorbance over BSA” value [6] was > 5 fold.

ASLPAWGSWTWENGKWTWKGWSTRTA [Peptide 3 specific to nAchR (Table 3d), bipodal-peptide binder]: binds [7].

With GSWTWENGKWTWKGIIRLEQ [C-terminal region peptide derived from ED-B peptide 2 (monopodal, one target binding region removed)] the Kd [8] was 12800 nM, the koff [9] was 0.022 s⁻¹ and the kon [9] was 1770 M⁻¹ s⁻¹.

SANSLYGSWTWENGKWTWKGTSRQRW [Peptide 2 specific to HSA (Table 3e), bipodal-peptide binder]: binds (Human serum albumin).

HAFYYTGSWTWENGKWTWKGWPVTTS [Peptide 3 specific to VEGF (Table 3b), bipodal-peptide binder]: binds [1].

AAPTSFGSWTWENGKWTWKGWQMWHR [Peptide 5 specific to VEGF (Table 3b), bipodal-peptide binder]: binds [1].

With HANFFQGSWTWENGKWTWKGWKYNQS [Peptide 1 specific to VEGF (Table 3b), bipodal-peptide binder] the binding result (BSA) was “no binding”, the koff [2] was 0.013 s⁻¹ and the kon [2] was 220000 M⁻¹ s⁻¹. The Kd [3] was 60 nM.

HCSSAVGSWTWENGKWTWKG [N-terminal region peptide derived from ED-B peptide 2 (monopodal, one target binding region removed)] showed a Kd [8] of 592000 nM, a koff [9] of 2.54 s⁻¹ and a kon [9] of 4290 M⁻¹ s⁻¹.

Binder MSADKSGSWTWENGKWTWKGQVRTRD [Peptide 1 specific to fibronectin ED-B (Table 3a), bipodal-peptide binder] has a Kd [4] of 620 nM, a koff [5] of 0.024 s⁻¹ and a kon [5] of 38000 M⁻¹ s⁻¹.

Binder HCSSAVGKTWNPATGKWTEGIIRLEQ (Synthetic peptide (Anigen)) [Bipodal-peptide binder with HP7 β-hairpin backbone carrying the ED-B peptide 2 binding regions] has a koff [10] of 0.0197 s⁻¹, a kon [10] of 236000 M⁻¹ s⁻¹ and a Kd [11] of 84 nM.

YAYPLLGSWTWENGKWTWKGWYQKWI [Peptide 2 specific to nAchR (Table 3d), bipodal-peptide binder]: binds [7].

With GGHNIQGSWTWENGKWTWKGWQHIWG [Peptide 2 from the AR-DBD biopanning (6/20 clones), bipodal-peptide binder] the “fold absorbance over BSA” value [6] was > 5 fold.

HCSSAVGKKWTYNPATGKFTVQEGIIRLEQ (Synthetic peptide (Anigen)) [Bipodal-peptide binder with GB1 m3 β-hairpin backbone carrying the ED-B peptide 2 binding regions] gave a koff [10] of 0.0119 s⁻¹, a kon [10] of 169000 M⁻¹ s⁻¹ and a Kd [11] of 70 nM.

YAHVYYGSWTWENGKWTWKGHRVTQT [Peptide 3 specific to HSA (Table 3e), bipodal-peptide binder]: binds (Human serum albumin).
